B1: HNF4A (parent)
chain: RFSRQCVVDKDKRNQCRYCRLKKC
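Also: lentivirally expressed fusions sorted by FACS into six bins by GFP to DsRed ratio, PSI derived from sequencing read proportions per bin multiplied by bin number.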

Variants of: B1
Assay: protein stability index of a GFP-peptide fusion (GPS, HEK-293T) (PSI 1-6); higher = more stable
Conditions: c terminus: a fixed tail appended
For RFVRQCVVDKDKRNQCRYCRLKKC [S3V], the protein stability index was 2.17. Variant RFWRQCVVDKDKRNQCRYCRLKKC [S3W] has a protein stability index of 1.52. For RFNRQCVVDKDKRNQCRYCRLKKC [S3N], the protein stability index was 2.76. Variant RFDRQCVVDKDKRNQCRYCRLKKC [S3D] has a protein stability index of 2.58. Work on RFHRQCVVDKDKRNQCRYCRLKKC [S3H] yielded a protein stability index of 2.7. RFTRQCVVDKDKRNQCRYCRLKKC [S3T] gave a protein stability index of 2.67. RFQRQCVVDKDKRNQCRYCRLKKC [S3Q] gave a protein stability index of 2.5. With RFRRQCVVDKDKRNQCRYCRLKKC [S3R] the protein stability index was 3.1. Work on RFYRQCVVDKDKRNQCRYCRLKKC [S3Y] yielded a protein stability index of 2.95. RFKRQCVVDKDKRNQCRYCRLKKC [S3K] gave a protein stability index of 3.33. Work on RFMRQCVVDKDKRNQCRYCRLKKC [S3M] yielded a protein stability index of 2.33. Work on RFGRQCVVDKDKRNQCRYCRLKKC [S3G] yielded a protein stability index of 2.34. RFFRQCVVDKDKRNQCRYCRLKKC [S3F] showed a protein stability index of 1.91. RFCRQCVVDKDKRNQCRYCRLKKC [S3C] showed a protein stability index of 3.62. With RFPRQCVVDKDKRNQCRYCRLKKC [S3P] the protein stability index was 3.26. RFLRQCVVDKDKRNQCRYCRLKKC [S3L] showed a protein stability index of 2.08. RFERQCVVDKDKRNQCRYCRLKKC [S3E] showed a protein stability index of 3.07. For RFARQCVVDKDKRNQCRYCRLKKC [S3A], the protein stability index was 2.59. Variant RFIRQCVVDKDKRNQCRYCRLKKC [S3I] has a protein stability index of 2.77. Work on FFSRQCVVDKDKRNQCRYCRLKKC [R1F] yielded a protein stability index of 1.94. Variant TFSRQCVVDKDKRNQCRYCRLKKC [R1T] has a protein stability index of 2.24. HFSRQCVVDKDKRNQCRYCRLKKC [R1H] gave a protein stability index of 3.54. For EFSRQCVVDKDKRNQCRYCRLKKC [R1E], the protein stability index was 3.43. With IFSRQCVVDKDKRNQCRYCRLKKC [R1I] the protein stability index was 2.65. YFSRQCVVDKDKRNQCRYCRLKKC [R1Y] showed a protein stability index of 2.19. For QFSRQCVVDKDKRNQCRYCRLKKC [R1Q], the protein stability index was 2.66. Work on AFSRQCVVDKDKRNQCRYCRLKKC [R1A] yielded a protein stability index of 2.4. MFSRQCVVDKDKRNQCRYCRLKKC [R1M] gave a protein stability index of 1.54. In the case of LFSRQCVVDKDKRNQCRYCRLKKC [R1L], the protein stability index is reported as 2.31. NFSRQCVVDKDKRNQCRYCRLKKC [R1N] showed a protein stability index of 2.44. PFSRQCVVDKDKRNQCRYCRLKKC [R1P] showed a protein stability index of 2.5. In the case of GFSRQCVVDKDKRNQCRYCRLKKC [R1G], the protein stability index is reported as 2.64. For VFSRQCVVDKDKRNQCRYCRLKKC [R1V], the protein stability index was 1.53. In the case of WFSRQCVVDKDKRNQCRYCRLKKC [R1W], the protein stability index is reported as 2.21. Variant CFSRQCVVDKDKRNQCRYCRLKKC [R1C] has a protein stability index of 2.95. Work on KFSRQCVVDKDKRNQCRYCRLKKC [R1K] yielded a protein stability index of 2.4. SFSRQCVVDKDKRNQCRYCRLKKC [R1S] showed a protein stability index of 2.18. Work on DFSRQCVVDKDKRNQCRYCRLKKC [R1D] yielded a protein stability index of 2.59. RVSRQCVVDKDKRNQCRYCRLKKC [F2V] gave a protein stability index of 2.37. Work on RGSRQCVVDKDKRNQCRYCRLKKC [F2G] yielded a protein stability index of 2.96. RSSRQCVVDKDKRNQCRYCRLKKC [F2S] gave a protein stability index of 4.23. In the case of RLSRQCVVDKDKRNQCRYCRLKKC [F2L], the protein stability index is reported as 3.06. In the case of RHSRQCVVDKDKRNQCRYCRLKKC [F2H], the protein stability index is reported as 3.34. Work on RTSRQCVVDKDKRNQCRYCRLKKC [F2T] yielded a protein stability index of 3.08. With RKSRQCVVDKDKRNQCRYCRLKKC [F2K] the protein stability index was 3.31. RWSRQCVVDKDKRNQCRYCRLKKC [F2W] gave a protein stability index of 2.37. RMSRQCVVDKDKRNQCRYCRLKKC [F2M] showed a protein stability index of 2.89. With RYSRQCVVDKDKRNQCRYCRLKKC [F2Y] the protein stability index was 3.32. For RDSRQCVVDKDKRNQCRYCRLKKC [F2D], the protein stability index was 3.45. With RISRQCVVDKDKRNQCRYCRLKKC [F2I] the protein stability index was 2.39. In the case of RPSRQCVVDKDKRNQCRYCRLKKC [F2P], the protein stability index is reported as 3.45. With RRSRQCVVDKDKRNQCRYCRLKKC [F2R] the protein stability index was 3.37. Variant RESRQCVVDKDKRNQCRYCRLKKC [F2E] has a protein stability index of 3.6. In the case of RASRQCVVDKDKRNQCRYCRLKKC [F2A], the protein stability index is reported as 3.77. Work on RQSRQCVVDKDKRNQCRYCRLKKC [F2Q] yielded a protein stability index of 3.63. Work on RNSRQCVVDKDKRNQCRYCRLKKC [F2N] yielded a protein stability index of 3.39. For RFSRQDVVDKDKRNQCRYCRLKKC [C6D], the protein stability index was 2.47. In the case of RFSRQAVVDKDKRNQCRYCRLKKC [C6A], the protein stability index is reported as 3.24. For RFSRVCVVDKDKRNQCRYCRLKKC [Q5V], the protein stability index was 2.26. For RFSRPCVVDKDKRNQCRYCRLKKC [Q5P], the protein stability index was 2.39. With RFSRWCVVDKDKRNQCRYCRLKKC [Q5W] the protein stability index was 2.4. RFSRACVVDKDKRNQCRYCRLKKC [Q5A] gave a protein stability index of 2.24. Work on RFSRYCVVDKDKRNQCRYCRLKKC [Q5Y] yielded a protein stability index of 2.22. RFSRGCVVDKDKRNQCRYCRLKKC [Q5G] showed a protein stability index of 2.38. For RFSRKCVVDKDKRNQCRYCRLKKC [Q5K], the protein stability index was 2.43. In the case of RFSRFCVVDKDKRNQCRYCRLKKC [Q5F], the protein stability index is reported as 2.18. Variant RFSRNCVVDKDKRNQCRYCRLKKC [Q5N] has a protein stability index of 2.6. Work on RFSRLCVVDKDKRNQCRYCRLKKC [Q5L] yielded a protein stability index of 2.56. In the case of RFSRHCVVDKDKRNQCRYCRLKKC [Q5H], the protein stability index is reported as 2.5. RFSRSCVVDKDKRNQCRYCRLKKC [Q5S] showed a protein stability index of 2.96. Work on RFSRTCVVDKDKRNQCRYCRLKKC [Q5T] yielded a protein stability index of 2.16. Variant RFSRRCVVDKDKRNQCRYCRLKKC [Q5R] has a protein stability index of 2.83. Work on RFSRICVVDKDKRNQCRYCRLKKC [Q5I] yielded a protein stability index of 2.16. With RFSRCCVVDKDKRNQCRYCRLKKC [Q5C] the protein stability index was 2.04. Work on RFSRECVVDKDKRNQCRYCRLKKC [Q5E] yielded a protein stability index of 3.29. For RFSRMCVVDKDKRNQCRYCRLKKC [Q5M], the protein stability index was 3.11. For RFSRDCVVDKDKRNQCRYCRLKKC [Q5D], the protein stability index was 2.3. RFSEQCVVDKDKRNQCRYCRLKKC [R4E] gave a protein stability index of 2.6. RFSQQCVVDKDKRNQCRYCRLKKC [R4Q] showed a protein stability index of 2.8. Variant RFSTQCVVDKDKRNQCRYCRLKKC [R4T] has a protein stability index of 1.62. Work on RFSIQCVVDKDKRNQCRYCRLKKC [R4I] yielded a protein stability index of 1.85. Variant RFSFQCVVDKDKRNQCRYCRLKKC [R4F] has a protein stability index of 1.9. Work on RFSKQCVVDKDKRNQCRYCRLKKC [R4K] yielded a protein stability index of 2.58. With RFSPQCVVDKDKRNQCRYCRLKKC [R4P] the protein stability index was 1.54. With RFSCQCVVDKDKRNQCRYCRLKKC [R4C] the protein stability index was 3.38. RFSGQCVVDKDKRNQCRYCRLKKC [R4G] gave a protein stability index of 2.6. RFSVQCVVDKDKRNQCRYCRLKKC [R4V] gave a protein stability index of 2.59. RFSHQCVVDKDKRNQCRYCRLKKC [R4H] showed a protein stability index of 3.57. Variant RFSDQCVVDKDKRNQCRYCRLKKC [R4D] has a protein stability index of 2.27. Work on RFSNQCVVDKDKRNQCRYCRLKKC [R4N] yielded a protein stability index of 2.53. RFSLQCVVDKDKRNQCRYCRLKKC [R4L] showed a protein stability index of 1.79. RFSWQCVVDKDKRNQCRYCRLKKC [R4W] gave a protein stability index of 2.4. RFSMQCVVDKDKRNQCRYCRLKKC [R4M] showed a protein stability index of 2.91. With RFSSQCVVDKDKRNQCRYCRLKKC [R4S] the protein stability index was 2.44.
